How the values were obtained:
[1] = biological target: full-length human LOXL2 protein (human) (UniProt Q9Y4K0); test: ELISA, LOXL2 coated
[2] = biological target: full-length human LOXL2 protein (human) (UniProt Q9Y4K0); test: cell-based or functional assay

UniProt Q9Y4K0, sequence (Q9Y4K0 other isoform, or with tags, fused parts or gaps): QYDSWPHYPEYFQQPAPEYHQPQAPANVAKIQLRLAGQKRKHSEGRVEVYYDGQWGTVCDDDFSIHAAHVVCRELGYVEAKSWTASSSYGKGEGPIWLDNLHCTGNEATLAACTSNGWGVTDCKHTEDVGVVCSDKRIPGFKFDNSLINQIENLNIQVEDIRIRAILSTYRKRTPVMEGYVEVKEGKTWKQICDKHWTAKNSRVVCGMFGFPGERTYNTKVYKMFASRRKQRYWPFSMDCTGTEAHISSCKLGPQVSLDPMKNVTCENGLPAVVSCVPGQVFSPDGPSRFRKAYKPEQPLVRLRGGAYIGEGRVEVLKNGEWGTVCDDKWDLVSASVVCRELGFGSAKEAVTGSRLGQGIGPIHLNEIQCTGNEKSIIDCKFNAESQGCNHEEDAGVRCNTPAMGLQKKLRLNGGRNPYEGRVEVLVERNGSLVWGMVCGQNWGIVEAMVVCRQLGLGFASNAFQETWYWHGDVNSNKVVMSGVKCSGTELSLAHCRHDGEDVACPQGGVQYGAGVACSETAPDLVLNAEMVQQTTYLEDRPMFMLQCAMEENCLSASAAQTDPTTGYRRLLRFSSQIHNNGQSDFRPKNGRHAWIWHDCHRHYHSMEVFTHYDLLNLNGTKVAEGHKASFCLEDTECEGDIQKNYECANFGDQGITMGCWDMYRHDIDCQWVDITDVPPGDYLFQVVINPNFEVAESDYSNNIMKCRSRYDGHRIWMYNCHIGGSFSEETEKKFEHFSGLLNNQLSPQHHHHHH

B1: AB0023 (antibody, from another filing, V domains shown)
VH: QVQLQQSGAELVRPGTSVKVSCKASGYAFTYYLIEWVKQRPGQGLEWIGVINPGSGGTNYNEKFKGKATLTADKSSSTAYMQLSSLTSDDSAVYFCARNWMNFDYWGQGTTLTVSS
VL: DIVMTQAAPSVSVTPGESVSISCRSSKSLLHSNGNTYLYWFLQRPGQSPQFLIYRMSNLASGVPDRFSGSGSGTAFTLRISRVEAEDVGVYYCMQHLEYPYTFGGGTKLEIK
Kd [1]: < 1 nM | IC50′ (nM), inhibition of LOXL2 enzymatic activity (Amplex Red assay); substrate DAP, collagen [2]: 62 nM

Reference: patent publication US20140302524A1
